This is an account of results in the supplement of paper PMC12042874.

± gives the uncertainty stated by the source.

This data set is described as follows: amyloid nucleation score (Sup35N fusion, yeast selection) (log enrichment); library NNK3; higher = more nucleation; inactive = no reads after selection. The essentials:
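Sup35N was fused to peptides of 20 random codons and expressed in psi-negative yeast, which were induced with 100 μM copper sulfate for 24 hours and then grown on medium lacking adenine and uracil for 7 days at 30°C. Plasmid inserts from input and output were sequenced on Illumina. The nucleation score is the DiMSum log enrichment of output over input reads, centred on the mode score of non-aggregating sequences. Sequences with under 100 input reads were left out, and random libraries had three technical output replicates.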
For the substance RDGNRVQMVSIPIQVSAMLG, the amyloid nucleation score result is “inactive”.

With TCLRG, the amyloid nucleation score result was “inactive”.

On to NAWIFVKRFS, for which the amyloid nucleation score result is “inactive”.

Turning to LLIIGLKSAVGVW, the amyloid nucleation score result was “inactive”.

As for FLRFWARSNPGTWLIVHGMG, the amyloid nucleation score is -0.69 ± 1.4.

For NLPNGMFKIHVDG, the amyloid nucleation score result was “inactive”.

As to DRYDSVYEDGLLLLMFFDHV, the amyloid nucleation score entry was “inactive”.

Take LNQLRSDITGLMSMTWDDLC: the amyloid nucleation score entry is “inactive”.

In the case of LVRCRVVWDLL, the amyloid nucleation score entry is “inactive”.

CQRPWNRTRR: the amyloid nucleation score result is “inactive”.

On to DYISPYCS, for which the amyloid nucleation score entry was “inactive”.

Turning to TLLGNINPLLW, the amyloid nucleation score result is “inactive”.

For GILYGPCSFWDFVRLEMSRF, the amyloid nucleation score is -0.504 ± 0.8.

On to YGPSLQNSWDPFPRASSPVI, for which the amyloid nucleation score entry was “inactive”.

As to RSYIKGIFCLSAMRFQCSMS, the amyloid nucleation score is -0.404 ± 0.78.

In the case of DLIGYSEEV, the amyloid nucleation score worked out at 0.449 ± 0.19.

On to NTSLRYIKLFSVNDALPLP, for which the amyloid nucleation score entry was “inactive”.

RNGMISQAYSVP: the amyloid nucleation score result is “inactive”.

Consider KFLISFRRSY, for which the amyloid nucleation score stood at 2.07 ± 0.076.

ECYMVCFDSCSNIMFVLDLE displayed an amyloid nucleation score of 1.92 ± 0.095.

In turn, DCGKRSTTINFAWNGAVQPD had an amyloid nucleation score of 1.04 ± 0.18.

Consider SGWYWICLKHRGQVDHPLST, for which the amyloid nucleation score entry is “inactive”.

Regarding GVLLKVSR, the amyloid nucleation score entry was “inactive”.

MCSIIRCRFNMFCLMYVNSV yielded an amyloid nucleation score of 0.584 ± 0.13.

As to YSVVNDSGIFFYVGHHVFAV, the amyloid nucleation score result was “inactive”.

For the substance CSLTCWSVVRVFQYEILRE, the amyloid nucleation score entry is “inactive”.

Regarding LKISALTIESMF, the amyloid nucleation score entry is “inactive”.

As for TCLLIYFMFHGEVMPLWSI, the amyloid nucleation score result was “inactive”.

On to SLQKWWDSLTHNLMVVTKHG, for which the amyloid nucleation score entry was “inactive”.

As for EYLLSSMRLSVILSAWYARC, the amyloid nucleation score result is “inactive”.

Take IIMSLLIALP: the amyloid nucleation score is 0.653 ± 0.18.

As to TDETSGRSLGVVWEHHAMNH, the amyloid nucleation score entry is “inactive”.

In turn, WIFCLVAIFRTEVDMTNYFT registered an amyloid nucleation score of 0.355 ± 0.69.

As to GMVNVARRKMSGLR, the amyloid nucleation score is 1.09 ± 0.16.

Regarding YADRRIFSVS, the amyloid nucleation score entry is “inactive”.

On to PGCAAWRRSYVS, for which the amyloid nucleation score entry is “inactive”.

For the substance AGLPLV, the amyloid nucleation score entry is “inactive”.

Take MQLDYSSSVLNMFLDANILY: the amyloid nucleation score entry was “inactive”.

Take SCLTIGWLNVVSFWI: the amyloid nucleation score was found to be 1.97 ± 0.082.

As for FCGGVAFMMVNVERVRTRRE, the amyloid nucleation score was determined as 1.39 ± 0.15.

Regarding AEYLMEQAGTMC, the amyloid nucleation score entry was “inactive”.

As for MILLHVVCSVFPVRGFVVLA, the amyloid nucleation score result was “inactive”.

Consider KFRKTRSKR, for which the amyloid nucleation score entry is “inactive”.

Turning to LYIPMQLQCCAIMEGYAILF, the amyloid nucleation score came out at 1.6 ± 0.078.

As for HGFEIDTRTDSRQAVNCMCC, the amyloid nucleation score result was “inactive”.

YCLKLLGGFC returned an amyloid nucleation score of 0.657 ± 0.27.

With HKGALVWYFYCRANFADYLY, the amyloid nucleation score result was “inactive”.

In the case of LSGMMFAGPFLTCSLDCWML, the amyloid nucleation score entry was “inactive”.

Take NYSSAQEYKVSQERIS: the amyloid nucleation score entry is “inactive”.

Turning to YQMTNCSLFFTTLYSVNYDY, the amyloid nucleation score came out at 2.81 ± 0.082.

On to QYTFVGDLMVDLITKTVMLM, for which the amyloid nucleation score result is “inactive”.

Turning to CAESFHIAASG, the amyloid nucleation score result is “inactive”.

On to LEAHESIRFCP, for which the amyloid nucleation score entry is “inactive”.

Turning to TLCST, the amyloid nucleation score entry is “inactive”.

Turning to ITLGACS, the amyloid nucleation score result is “inactive”.

Turning to ELGMQSNGSSNDRLERRRIR, the amyloid nucleation score entry is “inactive”.

For the substance SMSFFMSNGRALLYCQMQFA, the amyloid nucleation score result is “inactive”.

For the substance SFCIIY, the amyloid nucleation score entry is “inactive”.

Consider DVDFPSFAGFMVTISIGIFV, for which the amyloid nucleation score entry was “inactive”.

As for DDCIIRAGWDLLQR, the amyloid nucleation score result was “inactive”.

For the substance CADVTTTHGGLYVGPSSTAT, the amyloid nucleation score result was “inactive”.

SVIRVMSFG: the amyloid nucleation score entry was “inactive”.

For LLYMSECNELSIDRLVNLSK, the amyloid nucleation score entry was “inactive”.

For the substance GIYVVLNCISIFRLWLLSER, the amyloid nucleation score result is “inactive”.

As to LWAWIIYGMWKGSFLCHVFS, the amyloid nucleation score result is “inactive”.

Regarding WAFGYFGCYFQFLVLQDSVG, the amyloid nucleation score was 1.87 ± 0.1.

Consider LPRPFSYSGLR, for which the amyloid nucleation score is -0.289 ± 0.59.

Regarding SRSLLEAWDHGTHAGLHVWS, the amyloid nucleation score entry is “inactive”.

Substance NCMTLCLIDIRYSFENFFSF displayed an amyloid nucleation score of 2.18 ± 0.071.

Substance NTRREDSGWTNLCFWCARN displayed an amyloid nucleation score of 2.01 ± 0.052.

On to NERREANGWSYRDLHGSGFE, for which the amyloid nucleation score result was “inactive”.

For CTSTLMEFSFSYEWSNGCCS, the amyloid nucleation score entry is “inactive”.

For TLRDKNLLEPIKCDWYTIKT, the amyloid nucleation score entry is “inactive”.

In turn, RVIIRNANSILGTPQSDHNQ gave an amyloid nucleation score of 0.706 ± 0.18.

As for GRNCFGGARTAVGIRNTSPL, the amyloid nucleation score result is “inactive”.

In the case of WMCIEGIANLESAFNRRFST, the amyloid nucleation score entry was “inactive”.

VCMLVMYESRLNVEKAVLLG: the amyloid nucleation score was -0.083 ± 0.64.

In turn, DWRLRSFICRAVVVCCINGD returned an amyloid nucleation score of 1.54 ± 0.077.

Consider RDFITRSSECSESD, for which the amyloid nucleation score entry was “inactive”.

The substance YQCTKMRLVSFRTVVLVLRG had an amyloid nucleation score of 0.04 ± 0.8.

As to VRLTTWLAYNLMVSSDTMFC, the amyloid nucleation score result was “inactive”.

For the substance HLRETCCRWDVLCVDSLLV, the amyloid nucleation score result was “inactive”.

Regarding ITGFLFRVVW, the amyloid nucleation score was determined as 0.829 ± 0.13.

On to IVGLDWKNATVRDCRRNFIN, for which the amyloid nucleation score entry is “inactive”.

On to RDLKFGWGWMGRTEISWYLF, for which the amyloid nucleation score entry is “inactive”.

Consider SYRKEYYKLGHYSRRMQATS, for which the amyloid nucleation score result was “inactive”.

Consider YSMQGYRCMYLGDNVAVLAF, for which the amyloid nucleation score entry was “inactive”.

Consider ASKALIWCLSRCIDLVVLRE, for which the amyloid nucleation score entry was “inactive”.

As for IDGSYAFSKKPDPNSVKYIM, the amyloid nucleation score entry is “inactive”.

Regarding QGDRLENKTLQVLHEKARSR, the amyloid nucleation score entry was “inactive”.

As for YNWIC, the amyloid nucleation score result was “inactive”.

Regarding DYGMLCSLLSGDISNSEVGI, the amyloid nucleation score result is “inactive”.

In the case of VINRSLCPERFGKGAL, the amyloid nucleation score result is “inactive”.

As to VAVLVNALSLPEVGKGVVRR, the amyloid nucleation score was 1.84 ± 0.083.

For DICEIRTTIRAC, the amyloid nucleation score result was “inactive”.

For the substance FMYVRCQIVADTCFGIASWG, the amyloid nucleation score is -0.032 ± 0.82.

Consider TYYLSMN, for which the amyloid nucleation score entry is “inactive”.

For the substance HMSQLTLYCCAKIRKVVPLL, the amyloid nucleation score entry was “inactive”.

TEGRVQMWRINALRECTGSS: the amyloid nucleation score result was “inactive”.

For GNIDCSTVFVSRNNCD, the amyloid nucleation score result is “inactive”.

Regarding GVCASNQLALKCTYVPMSVR, the amyloid nucleation score result is “inactive”.

As for VGSIARLFVQTAMPVPKLAR, the amyloid nucleation score result was “inactive”.

In turn, DCCKFFLKDSRSRSFSWSIY yielded an amyloid nucleation score of 1.66 ± 0.08.

Turning to GKIAVS, the amyloid nucleation score result is “inactive”.

In turn, FKVSFIWCCNFKMSCGAYER returned an amyloid nucleation score of 0.446 ± 0.4.

For FCMGLHSWNSNGRFCAVCTY, the amyloid nucleation score entry was “inactive”.

As for IKVISLEAMKTYCF, the amyloid nucleation score entry is “inactive”.

As to TKRWHR, the amyloid nucleation score entry was “inactive”.

GYRYIVDLG: the amyloid nucleation score entry was “inactive”.

Take GLIDLRVCEGRQFARTGSEM: the amyloid nucleation score stood at 0.132 ± 0.36.

As to AYFLLCHHFTKRSWARGWR, the amyloid nucleation score stood at 0.314 ± 0.46.

In the case of DLKTWSMLSFFGMYATYLIK, the amyloid nucleation score entry is “inactive”.

On to FVVELCVDPTFKLYD, for which the amyloid nucleation score entry was “inactive”.

Turning to FLPDSFESYEKEVHTMDESS, the amyloid nucleation score result was “inactive”.

Turning to FFVFSRLVYPWCGMFFLSLK, the amyloid nucleation score entry was “inactive”.

Consider SCSMHFLVCEDYNRMLALRC, for which the amyloid nucleation score result was “inactive”.

On to SWFALSLIIKTRVWT, for which the amyloid nucleation score entry was “inactive”.

In turn, KMMARTSNVVEVLCWRTDVA gave an amyloid nucleation score of 0.015 ± 0.64.

For SLDIWGCSKGRRWSGFKI, the amyloid nucleation score entry was “inactive”.

On to RANSIC, for which the amyloid nucleation score result is “inactive”.

As to LFMTRSFILYFTYPFRYGVV, the amyloid nucleation score result is “inactive”.

Take FQNDDVTS: the amyloid nucleation score result was “inactive”.

Regarding ACAGMDCKGYMFLWSFGRAW, the amyloid nucleation score result was “inactive”.

On to VRSNVKDRFT, for which the amyloid nucleation score result was “inactive”.

Consider LNLWD, for which the amyloid nucleation score entry is “inactive”.

On to HSVPLPMLYFHYNMILLMLL, for which the amyloid nucleation score result is “inactive”.

Take RVNRRWDSLS: the amyloid nucleation score entry is “inactive”.

As for SYISQEFYDFCFKPYLGSLY, the amyloid nucleation score result is “inactive”.

On to YKGKWLFCRQMSCEHFFGFF, for which the amyloid nucleation score entry was “inactive”.

For MLRLKYLIELTRDFFGWFLF, the amyloid nucleation score result is “inactive”.

As for SCFAVCHYESRLVYVTYSFL, the amyloid nucleation score result was “inactive”.

Turning to NWEFDSNAILDSMLVMNRLT, the amyloid nucleation score result was “inactive”.
